From the nanobody polyreactivity screen of Harvey et al. (2022)

Assay: yeast display, Sf9 membrane polyspecificity reagent, FACS + sequencing; frameworks hold sequencing errors
Summary of the method: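 In a synthetic yeast display library (Saccharomyces cerevisiae BJ5465), nanobody expression was induced with galactose for 36–48 hours. FACS gates were set low and high (top ~1%) using anti-HA fluorescence for expression and streptavidin fluorescence for binding of the Sf9 membrane reagent. Each polyreactivity label is drawn from the gate of origin.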

| Sequence | polyreactivity (PSR sort gate) |
| --- | --- |
| QVQLVESGGGLVQAGGSLRLSCAASGRTLKYNAKGGNRQAPGKARELVAALTNSGTRTYYADSVKGRFTISRDNAKNTVYLQMNSQKPEDTAVYYCAKDSYPYLRVGHLKYRVKTYGHWGQGTQVTVSS | high polyreactivity |
| QVQLVESGGGLVQAGGSLRLSCAASGSTFRNYAMGWYRQAPGKDRELVAAISGSGGRTNYADSVKGRFTISRDNAKTTVYLQMNSLKPEDTAVYYCAASGGRNWWAARNYYWGQGTQVTVSS | low polyreactivity |
| QVQLVESGGGLVQAGGSLRLSCAASGFIFPLYTMGWYRQAPGKERELVAAISVTGGSTYYADSVKGRFTISRDNAKNTVYLQMNSLKPEDTAVYYCNAYLFFLNRVWSFDYWGQGTQVTVSS | high polyreactivity |
| QVQLVESGGGLVQAGGSLRLSCAASGFSFPPYAMGWYRQAPGKERELVAAITTSGGSTYYADSVKGRFTISRDNAKNTVYLQMNSMKPEDTAVYYCAADWRYLGYTAMDYWGQGTQVTVSS | low polyreactivity |
| QVQLVESGGGLVQAGCSLRLSCAASGLIFGRNVMGWYRQAPGKERELVAAISWSGGRTYYADSVKGRFTISRDNAKNTVYLQMNSLKPEDTAVYYCATDRSTRTYRSPYDYWGQGTQVTVSS | high polyreactivity |
| QVQLVESGGGLVQAGGSLRLSCAASGRTFATNTMGWSRQAPGKERELVAAITFSGGSTYYADSVKGRFTISRDNAKNTVYLQMNSLKPEDTAVYYCNVRSPYYSYRYRYGYWGQGTQVTVSS | high polyreactivity |
| QVQLVASGGGLVQAGGTLRLSCAASGRIFGRYGMGWYSQAPGKERELVAAISRSGDRTYYADSVKGRFTISRDNAKNTVYLPMNSLKPEDTAVYYCAAYSYRYDYWGQGTQVTVAS | high polyreactivity |
| QVQLVESGGGLVQAGGTLRLTCAASGTFYGNNMGWYIHAPGKQRELVATIRRSTGSTYYADSVKGRFTISRDNAKNTVYLQMNSLKPEDTAVYYCAAEIYSYYRLYWYDYRGQGTQVTVSS | high polyreactivity |
| QVQLVESGGGLVQAGGSLRLSCAASGRTFFVYTMGWYRQAPGKERELVAAITSDTSTTYADSVKGRFTISRDNAKNTVYLQMISLKPEDTAVYYCAAEGYVGYYDYDYWGQGTQVTVSS | low polyreactivity |
| QVQLVESGGGLVQAGGSLRLSCAASGITFLPYAMGWYRPEPGKERELVAAITRGGGSTYADSVKGRFTISRDNAKNTVYLQMNSLKPEDTAVYYCNAKGRGWTAQYDYWGQGTQVTVSS | low polyreactivity |
| QVQLVESGGGLVQAGGSLRLSCAASGSIFYYYSMGWYRQAPGKERELVARITSGGSTKYADSVKGRFTISRDNAKYTVYLQMNSLKPEDTAVYYCAARYQYNYWGTYGSWGQGTQVTVSS | high polyreactivity |
| QVQLVESGGGLVQAGGSLPLSCAASGITLYLYVMGWYRQAPGKEREFVAAIRWAGGSTYYADSVKGRFTISRDNAKNTVYLHMNSLKPEDTAVYYCNAEVYGYYSARRPGYEYWGQGTQVTVSS | low polyreactivity |
| QVQLVESGGGLVQAGGSHRLSCAASGSIFYAYAMGWYRQAPGKERELVAAITGSGGRTYYADSVKGRFTISRDNAKNTVYLQMNSLKPEDTAVYYCNAYYYRGSSYGYWGQGTQVTVSS | high polyreactivity |
| QVQLVESGGGLVQAGGSIRLSCAASGSIFAPYAMGSYRQATGKVREFVAAISWSGGGTYYADSVQGRFTISRDNAKNTVNLQMNSLKPEDTAVYYCAAYRNKESIFRTILDYWGQGTQVTVSS | low polyreactivity |
| QVQLVESGGGLVQAGGSLRLSCAASGRILPSNAMGWYRQAPGKERELVAGITSGGSTDYADSVKGRFTISRDNAKNTVFLQMNSLKPEDTAVYYCNKPFPYYPDGPNGYDYWGQGTQVTVSS | low polyreactivity |
| QVHLVESGGVLVQAGGRLRLSCAAYGNIIGFNAMGWYRQAPGTERELVAAINSGGSTYYPDSVKGRFTISRDNAKNSVYLQMNSLKPEDSAVYYCAARVRIRGGGYDDWGQGTQVTVSS | high polyreactivity |

| Sequence | polyreactivity (PSR sort gate) |
| --- | --- |
| QVQLVESGGGLVQAGGSLRLSCAASGSTFYGYAMGWYRPAPGKERELVAAITIGGRTYYADSVKGRFTISRDNAKNTVYLQMNSLKPEDTAVYYCAAAILRTVPELGSRRTYYYWGQGTQVTVSS | high polyreactivity |
| QVQLVESGGGLVQAGGSLRLSCAASGSIFRQNAMGWYRQAPGKERELVAAISWSGVRTYYADSVKGRFTISRDNAKNTVYLQMNSLKPEDTAVYYCATRYTHVYYGRISSSPKFDSWGQGTQVTVSS | low polyreactivity |
| QVQLVESGGGLVQAGGSLRLSCAASGSISAGNAMGWYRQAPGKERELVAAITTSGGSTYYADSVKGRFTISRDNAKNTVYLQMNSLKPEDTAVYYCNVDPRKRSYDYWGQGTQVTVSS | high polyreactivity |
| QVQLVESGGGLVQAGGSLRLSCAASGRTFVRNTMGWYRQAPGKERELVAAISGGGSTYYADSVKGRFTISRDNAKNTVYLQMNSLKPEDTAVYYCAATTRRQGGKRFDYWGQGTQVTVSS | high polyreactivity |
| QVQLVESGGGLVQAGGSLRLSCAPSGFTFRFYVMGWYRQAPGKERELVAAISSSGGSTYYADSVKGRFTISRDNAKYTVYLQMNSMKPEDTAVYYCAADVPGARVSYWTYSGWHYDYWGQGTQVTVSS | high polyreactivity |
| QVQLVESGGGLVQAGGSLRLSCAASGITFILYAMGWYRQAPGKERELVASITSGGSTDYADSVKGRFTISRDNAKTTVYLQMNSLKPEDTAVYYCAADGRTYHHHDGGWYRYDYWGQGTQVTVSS | low polyreactivity |
| QVQLVESGGGLGHAGGSLRLSCAASGSIFFWYAMGWYRQAPGKERELVAAITQRTGSTYYADSVKGRFTISRDNAKNTVYLQMNSLKPEDTAVYYCAGKRWRRSFTGNYWGLGTQVTVSS | high polyreactivity |
| QGQLVETGGGLVQAGGSLRLSCGASGSTFLWNTIGWYRQGPRKERELVAEIRTSGGGTYYADSVKGRFTISRDNAKNTVYLQMNSLKPEDTEVYYCYADPKWEMGSWGQGTQVTVSS | low polyreactivity |
| QVQLVESGGGLVQAGGSLRLSCAASGSTFQSNAMGGYRQAPGKERELVAAISSSAGTTFYADSVKGRFTISRDNAKNTVYLQMNSLKPEDTAVYYCAAEYSRSYIEYDYWGQGTQVTVSS | low polyreactivity |
| QVQLVESGGGLVQAGGSLRLSCAASGRNFPLNGMGWYRQAPGKERELVAAISYRGGSTYYADSVKGRFTISRDNPKNTVYLQMNSLKPEDTAVYYCAADYVSRRYYYWGQGTQVTVSS | high polyreactivity |
| QVQLVESGGGLVQAGGSLRLSCAASGSTFYSNAMGWYRQAPGKERELVATISFRGGRTYYADSVKGRFTISRDNAMNTVYLQMNSLKPEDTAVYYCNAEVSGYPYTYGYRGQGTQVTVSS | low polyreactivity |
| QVQLVESGGGLVQAGGSLRLSCAASGSTITHNAMGWYRQAPGKERELVATISSGGSTNYADSVKGRFTISRDNAKNTVYLQMNRLKPEDTAVYYCAKPRYRSHVVYGPASGDDYWGQGTQVTVSS | low polyreactivity |
| QVQLLESGGGLVQAGGILRLSCAASGSTFYPYAMGWSRQAPGKDRELVAAITGTGGSTYYADSVKGRFRISLDNAKNTVDLQMNSLKPEDPAVYYCATRRRYYYSGYNYWGQGTQVTVSS | high polyreactivity |
| QVQLVESGGGLVQAGGSLRLSCAASGRILPVYAMGWYRQAPGKERELVAAINDSGTNTNYADSVKGRFTISRDNAKNTVYLHMNSLKPEDTAVYYCAASSGPRQGYSYRPHKSYGSWGQGTQVTVSS | low polyreactivity |
| QVQLEESGGGLVQAGGSLRLSCAASGSIFPRFYAIGWYRQAPGKERELVAAISWRDGSTFYADSVKGRFTISRDNAKNTVYLQMNSLKPEDTGVYYCAAATYRYGYGYWGQGTQVTVSS | high polyreactivity |
